In publication PMC5340008 (BMC Biochemistry, 2017):

Target: Bacillus anthracis Bla1 β-lactamase (Bacillus anthracis)

Chain of BLIP [change] (P35804 37-201 Y86A): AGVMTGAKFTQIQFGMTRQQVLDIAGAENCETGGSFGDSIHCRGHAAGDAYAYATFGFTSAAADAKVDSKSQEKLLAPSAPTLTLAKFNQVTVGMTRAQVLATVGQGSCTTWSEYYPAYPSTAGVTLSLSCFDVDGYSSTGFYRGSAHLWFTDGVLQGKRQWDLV

BLIP [change] (from UniProt P35804 37-201) (natural protein)
Ki: 1.2 nM
